From US20240409617A1 come the findings set out here.

Assay [1] addresses WT Spike (SARS-CoV-2 spike protein) (SARS-CoV-2).

Residue numbers refer to the chain shown, from its start.

B1: Ab_23 scFv-Fc (scFv, V domains shown)
VH: EVQLVQSGAEVKKPGSSVKVSCRSSGGTFSTYGITWVRQAPGQGLEWMGRIIPSLGIPNYAQKFQGRVTITADTSVSTAWMELSSLESDDTAIYYCARENIDLATNDFWGQGTLVTVSS
VL: QSALTQPPSASGSPGQSVTISCTGTSRDIGAYGYVSWYQQVPGKAPKLIIYEVRNRPSGVSSRFSGSKSGNTASLTISGLQAEDEADYYCSSYTSSSTLDVVFGGGTKLTVL
As for B1, in the assay with WT Spike (SARS-CoV2), the equilibrium dissociation constant (Kd) stood at 8.84 pM and the Response came to 0.0845.

B2: Ab_14 scFv-Fc (scFv, V domains shown)
VH: QVQLQQSGPGLVKPSQTLSLTCAISGDSVSSNSAAWNWIRQSPARGLEWLGRTYYRSRWYNDYAISMKSRITINPDTSKNQFSLQLESVTPEDTAVYYCAREIRGFDYWGQGTLVTVSS
VL: QSVLTQPPSASGSPGQSVTISCTGTSSDVGAYNFVSWYQHHPGKAPKLIIYDFNKRPSGVPDRFSGSKSGNTASLTVSGLQADDEADYYCSSYAGSNNFDVVFGGGTKLTVL
In the assay with WT Spike (SARS-CoV2), B2 had a dissociation constant Kd of 8.22 pM and a Response of 0.313.

B3: RBD-R3-E1-A5 Ab (Ab_30) scFv-Fc (scFv, V domains shown)
VH: QVQLVQSGGGVVQPGKSLRLSCTASGFTFSDFPIHWVRQAPGKGLEWVGVISYDGNIKYYGDSVKGRFTISRDNAKNSLYLQMNSLRVEDTAVYYCARGGSSFDIWGQGTTVTVSS
VL: SYELTQPPSVSEAPRQRVTISCSGSTSNIGNNAVSWYQHLPGKAPKLLIYYNERLPSGVSDRFSGSKSGTSASLAISGLRSEDEADYYCAAWDDSLSGHVVFGGGTKLTVL
B3: in the assay with WT Spike (SARS-CoV2), the Kd worked out at 1.02 pM and the Response was 0.107.

B4: S1-RBD-R3-T1-B12 Ab (Ab_31) scFv-Fc (scFv, V domains shown)
VH: QVQLVQSGAEVKKPGSSVKVSCKASGGTFSSYTISWVRQAPGQGLEWMGGIIPILGTPNYAQKFQDRVAITADKSTSTAYMELSSLRSEDTAVYYCAVGSGWYSGFDYWGQGTLVTVSS
VL: NFMLTQPHSVSESPGKTVTISCTGSSGSIASNYVQWYQQRPGSAPTTVIYEDSQRPSGVPDRFSGSIDSSSNSASLTISGLKTEDEADYYCQSFHNSNPVIFGGGTKLTVL
In the assay with WT Spike (SARS-CoV2), B4 yielded a dissociation constant (Kd) of less than 1 pM and a Response of 0.101.

B5: Ab_16 scFv-Fc (scFv, V domains shown)
VH: QVQLVQSGGGVVQPGRSLRLSCAASGFTFSNYGMHWVRQAPGKGLEWVALIWERGSKKDYADSVKGRFTVSRDNSKNTLYLQMNSLRPEDTAVYFCAREGISMTGAEYFQHWGQGTLVTVSS
VL: QSVLTQPPSVSGSPGQRVTMSCTGSSSNIGAGYDVHWYQQVPGAAPRLLIYGTNNRPSGVPDRFSGSKSGTSASLTITGLQAEDEADYYCQSYDNSLTDPYVFGTGTKVTVL
In the assay with WT Spike (SARS-CoV2), B5 returned a Kd of 11.8 pM and a Response of 0.346.

B6: Ab_17 scFv-Fc (scFv, V domains shown)
VH: QVQLVQSGGGVVQPGRSLRLSCAASGFTFDDYAMHWVRQVPGKGLEWVSGIDWNSGVIGYADSVKGRFTISRDNVKNSLYLQMNSLRTEDSALYYCAKDIGPGGSGSYYAFDIWGQGTTVTVSS
VL: QSALTQPASVSGSPGQSITISCTGTSSDVGGSKYVSWYQQHPGKAPKVMIYDVTKRPSGVPDRFSGSKSGNTASLTISGLQAEDEADYYCAAWDDSLNGVVFGGGTKLTVL
In the assay with WT Spike (SARS-CoV2), B6 registered a dissociation constant Kd of 6.35 pM and a Response of 0.248.

B7: Ab_18 scFv-Fc (scFv, V domains shown)
VH: EVQLVQSGGGVVQPGRSLRVSCAASGFSFSRYGMHWVRQAPGKGLEWVAFIRHDGSKKYYADSVEGRFTISRDNSRNTVSLEMNSLRGEDTAVYYCAKDGRLEAALDDWGQGTLVTVSS
VL: NFMLTQPHSMSGSAGKTVTVSCIRSSGSIANNFVQWYQQRPGSAPTTVIYEDNQRPSGVPDRFSGSIDSSSNSASLTISGLKTEDEADYYCQSYDSSNLVFGGGTRLTVL
Consider B7, for which, in the assay with WT Spike (SARS-CoV2), the equilibrium dissociation constant (Kd) amounted to 9.07 pM and the Response was 0.216.

B8: S1-R3-T1-C4 (Ab_8) scFv-Fc (scFv, V domains shown)
VH: QVQLVQSGAEVKKPGSSVKVSCKASGGTFSSYAISWLRQAPGQGLEWMGWINPNSGGTNYAQKFQGRVTMTRDTSISTAYMELSRLRSDDTAVYYCARGSGGYYLGWGQGTLVTVSS
VL: QPGLTQPPSVSKGLRQTATLTCTGNSNNVGNQGAAWLQQHQGHPPKLLSYMNNNRPPGISERFSASRSGNTASLTITGLQPEDEADYYCSAWDSSLSRWVFGGGTKLSVL
Regarding B8, in the assay with WT Spike (SARS-CoV2), the Kd stood at 7.15 pM and the Response was found to be 0.118.

B9: RBD-R3-E1-B3 Ab (Ab_32) scFv-Fc (scFv, V domains shown)
VH: QVQLVQSGAEVKKPGESLKISCKGSGYSFTSYWIGWVRQMPGKGLEWMGIIYPGDSDTRYSPSFQGQVTISADKSISTAYLQWSSLKASDTAMYYCARGWQWHDYWGQGTLVTVSS
VL: QTVVTQEPAVSVALGQTVRITCQGDSLRSYYASWYQQKPGQAPVLVVYDKDKRPSGIPDRFSGSTSGNTASLTITGAQAEDEADYYCNSRDRSDNHVVFGGGTKLTVL
As for B9, in the assay with WT Spike (SARS-CoV2), the equilibrium dissociation constant (Kd) stood at 6.32 pM and the Response was 0.131.

B10: Ab_26 scFv-Fc (scFv, V domains shown)
VH: QVQLVQSGGGLVQPGRSLRLSCAASGFTFDDYAMHWVRQVPGKGLEWVSGIDWNSGVIGYADSVKGRFTISRDNAKNSLYLQMNSLRAEDTALYYCAKDAYSYGFLGAFDIWGQGTMVTVSS
VL: LPVLTQPPSVSVAPGQTASITCGGDNIRTKGVHWYQQKPGQAPLLVIYYASDRPSGIPERFSGSSSGNTATLTISRVEAGDEADYYCQVWDSSSDLVVFGGGTTLTVL
On to B10, for which, in the assay with WT Spike (SARS-CoV2), the dissociation constant (Kd) came out at 11 pM and the Response was 0.185.

B11: Ab_21 scFv-Fc (scFv, V domains shown)
VH: QVQLVQSGGGLVQPGGSLRLSCATSGFTFDDYAMHWVRQAPGKGLEWVSGISWNSGSIGYVDSVKGRFTISRDNRNNKVYLQMNNLRAEDTAVYYCARDWWGSIDHWGLGTLVTVSS
VL: QSALTQPRSVSGSPGQSVTISCTGTSSDVGGYDYVSWYQQHPGKAPKLIIYDVSKRPSGVPDRFSGSKSGNTASLTVSGLQAEDEADYYCSSYTSSSPVVFGGGTKLTVL
Consider B11, for which, in the assay with WT Spike (SARS-CoV2), the dissociation constant (Kd) amounted to 9.25 pM and the Response came to 0.147.

B12: Ab 38 scFv-Fc (scFv, V domains shown)
VH: QVTLKESGPTLVKPTQTLTLTCTFSGFSLTTSGVSVGWIRQPPGKALEWLALIHWDDDKRYSPSLRSRLTITRDTSKNQVVLTVTDMDPADTGTYYCASFIMTVYAEYFEDWGQGTLVTVSS
VL: EIVLTQSPATLSVSPGERATLSCRASQSVSSNLAWYQQKPGQAPRLLMYDVSTRATGIPARFSGSGSGTEFSLTISSLQSEDFAVYYCQQRGAWPLTFGGGTKVEIK
In the case of B12, in assay [1], the equilibrium dissociation constant (Kd) was 7.86 pM and the Response was found to be 0.274.

B13: S1-RBD-R3-T1-F5 (Ab2-7) scFv-Fc (scFv, V domains shown)
VH: QVTLKESGPTRVKPTQTLTLTCTFSGFSLSTTGVGVGWIRQPPGKALEWLALIYWNDDKRYSPSLKSRLTITKDTSKNQVVLTMTNMDPVDTATYYCARISGSGYFYPFDIWGQGTTVTVSS
VL: NFMLTQPHSVSESPGKTVTISCTRSSGSIASNYVQWYQQRPGSSPTTVIYEDNQRPSGVPDRFSGSIDSSSNSASLTISGLKAEDEADYYCQSYDSSSLWVFGGGTKLTVL
For B13, in the assay with WT Spike (SARS-CoV2), the dissociation constant Kd came to 7.85 pM and the Response is 0.0672.

B14: Ab_25 scFv-Fc (scFv, V domains shown)
VH: QVQLVQSGGGLVQPGGSLRLSCAASGFTFSSYWMSWVRQAPGKGLEWVANIKQDGSEKYYVDSVKGRFTISRDNAKNSLYLQMNSLRAEDTAVYYCARGFYYYGAFDIWGQGTTVTVSS
VL: B13 VL with R24G, S44A, D68G, A83T, S98N, L99H
In the assay with WT Spike (SARS-CoV2), B14 registered a dissociation constant (Kd) of 8.9 pM and a Response of 0.0219.

B15: Ab_28 scFv-Fc (scFv, V domains shown)
VH: QVTLKESGPGLVNPSETLSLTCTVSGASISNSFWSWIRQSPGKGLEWIGYTSYSGNSIYNPSLKSRLTMSIDTSKNQLSLNLRSLTAADTAVYYCARREWIKGHFDYWGQGTLVTVSS
VL: B4 VL with S26G, S53N, F94Y, H95D, N96S, I101V
For the molecule B15, in the assay with WT Spike (SARS-CoV2), the dissociation constant Kd came to 8.9 pM and the Response was 0.132.

B16: Ab_13 scFv-Fc (scFv, V domains shown)
VH: B13 VH with T10K, R11L, T32S, N56D, T72A, N78Y, T117M, S122A
VL: B13 VL with S44A, A83T, S98N
In the assay with WT Spike (SARS-CoV2), B16 displayed a dissociation constant (Kd) of 8.55 pM and a Response of 0.0732.

B17: S1-RBD-R3-T1-C7 Ab (Ab_29) scFv-Fc (scFv, V domains shown)
VH: QVQLQQSGPGLVKPSQTLSLTCAISGDSVSSYSDAWNWIRQSPSRGLEWLGRTYYRSKWYNDYAVSVKSRITINPDTSKNQFSLQLSSVTPEDTAVYYCAREIVATTPFRNYYYGMDVWGQGTTVTVSS
VL: B13 VL with K16N, S25T, Y50F, E51Q, N53K, Q54L, A83T
For B17, in the assay with WT Spike (SARS-CoV2), the dissociation constant (Kd) is 149 pM and the Response came out at 0.126.

B18: Ab_20 scFv-Fc (scFv, V domains shown)
VH: QVQLVQSGGGSVKPGGSLRLSCAASGYRLSDYYMHWVRQAPGKGLEWVANIKQDGSEKYYVDSVKGRFTISRDNAKNSLYLQMNSLRAEDTAVYYCARVRGWSRGYFDYWGQGTLVTVSS
VL: B13 VL with R24G, S44A, T77L, A83T, S98N, L99H
Regarding B18, in the assay with WT Spike (SARS-CoV2), the Kd stood at 9.01 pM and the Response was 0.0985.

B19: Ab_19 scFv-Fc (scFv, V domains shown)
VH: EVQLVESGAEVKKPGESLKISCKGSGYSFTSYWIGWVRQMPGKGLEWMGIIYPGDSDTRYSPSFQGQVTISADKSISTAYLQWSSLKASDTAMYYCARRGDLDAFDIWGQGTMVTVSS
VL: QPGLTQPPAASGTPGQRVTVSCSGASANIGSNAVSWFKQFPETAPRLLISGNTHRPSGVPDRVSGSKSGTSASLTISGLQSDDEADYYCAAWDDSLNGYVFGSGTKVTVL
In the assay with WT Spike (SARS-CoV2), B19 had an equilibrium dissociation constant (Kd) of 8.9 pM and a Response of 0.121.

B20: Ab_27 scFv-Fc (scFv, V domains shown)
VH: QVQLVQSGTEVKKPGASVKVSCKASGYSFTGSHLHWVRQAPGQGLEWMGWINPDSGVINYAQKFQGRVTLTRDTSISTAYMELSGLRSDDTAVYYCARDKAIGYVWALDYWGQGTLVTVSS
VL: QSALTQPPSVSGSPGQSVTISCTGTSSDVGTYNRVSWYQQPPGKAPKLMIYEVSNRPSGVSNRFSGSKSGNTASLTISGLQAEDEADYYCSSYTRTFTYVFGTGTKVTVL
In the assay with WT Spike (SARS-CoV2), B20 registered an equilibrium dissociation constant (Kd) of 8.78 pM and a Response of 0.202.
